18 sequences from the DeepSol protein solubility set can be followed below.

This series can be described thus: soluble on expression in E. coli; label from the status in PepcDB or PDB records.
As to “MAHHHHHHMSTEVSSGSNDGPSFHHHIQDAVHMIWNNQCSEAEEILFPYKEIHPRYALEYANKYLVQTLMNSTNESREILLELFKVADSLASAAKYSEPMFDFDVENDGDGTGMSMCLPSKAERKISKKSFNGRRKAAEKAGQSFVDNWKLECDVIYADALLMRSVCQLMMNSYFKGGVNLRRTWGLYHKLIQVVEADRTNQIPNELKMCVKYGTGAFYAFLALVPANLMRLLNVIGFISDKELGEQYLTEVFESNGVRSPFAALVLCTLYLFLPTGLGRVEETLAKAKRILDAMNQKYEHNTYFYGYSNFYHRKRGETAEALMAIQLAETNAERAGLVPILIRYLHADTLFMDLRFEEARDRYAALLDHLAKTKESFAYTGQVVLSLAACFVMLGDDAQAIQWLKKVGSMYNSRSKNDANSPKFASRVLANPRLLPLCGVYMLYINRDLAHMKVEQAERLLEELTRVTKGKDLSGPEPENMFTLFVGVIHKGCDRIDEAFGYMSKIFANEKRVPNDSMVLPYAYYEAGELEYRRGNYENAKTLFTKGQSLKGDGNETLMNRYNIALKQLKRTMEERKGA”, the “soluble on expression in E. coli” value is recorded as “not soluble”.

With “AVKRRPRFPVNSNSNGGNELCPKIRIGQDDLPGFDLISQFQVDKAASRRAIQRVVGSATLQVAYKLGNNVDFRIPTRNLYPSGLPEEYSFLTTFRMTGSTLKKNWNIWQIQDSSGKEQVGIKINGQTQSVVFSYKGLDGSLQTAAFSNLSSLFDSQWHKIMIGVERSSATLFVDCNRIESLPIKPRGPIDIDGFAVLGKLADNPQVSVPFELQWMLIHCDPLRPRRETCHELPARITPSQTTDER”, the “soluble on expression in E. coli” value was “soluble”.

On to “MGSDKIHHHHHHMTSPHSFSVTPIRTMADGTIKQIHPFTGTEVWTVPGRGNRPLSHPASTIVELSAHDHTSYCAFCSDNMLSTPPEKSRIIIDSSGDFDILPGALPGELSETTPEFRRVPNLFEIVSFDYWHQNFGFDMDSETAMRMAQYLAIPEGREHVLAIVRTRLSAAGEDPAHMTDGELLEKAPSYFAGGHDVIIGRRHFVDDATTSDQLASSGTLTVKEHEAFIRLTVDGIRDLYHRNRYAPYVVAFQNWLKPAGASFDHLHKQLVAIDERGRLIADELHHLRGNPNMYNELAVDYAGYHNLIIAENDHAVAFAGFGHRYPTIEIYSKSAIPEPWLQSDEEIQAMSNLIHACHAATGADVPCNEEWVHKPIDVDMPMPWHVMIKWRVSTLAGFEGGTKVYLNTLSPHKVRDRVVKEMYRLRDEELIASDLRIAMECSVERNSLKYNPLL”, for which the “soluble on expression in E. coli” value is recorded as “not soluble”.

Regarding “MSLYLEKYYYEKNIQEEFFKFLYSMTGKKEEIVVICIGDPVFEGNILAPLVGTLLHERNIPNVYGTLKEPVYEINIKEIYNKILKKYDNPYIILVASSFPVDFHDEREVIVLKNDPYEIQTASGSLKLGNASFIVVFDLEDSYCKVNFIEKLGIRKIYKYSEAIFKTLYYILHNKNYVKEGHHHHHH”, the “soluble on expression in E. coli” value is reported as “soluble”.

Take “MKKILSILLALLLSISSLGVTTSHAEEKIHIEAAAALLFDADTGKILHEQNPDELLAIASMSKLIVVYAVLEAIKEGKITWDTKVNISDYAYEVSRNNEFSNVPFEKGRQYTVRELYHSIVIFSANGSSIALAELLAGSEKNFLNLANEHAKKLGLKKYKFVNATGLNNTDLKGKHPEGTDPNAENSMSARDMGILSKAMITKYPEMLEDTKQRFRNFPDNHPKPIRMENWNWMLPGAAFAYEGTDGLKTGSSDTAGYGFTITAKRGDVRLISVIIKTKSMDERFTESRELIEYGFNNFEKQKLKVDKNNTLSVAQGKEDQVTVAPEKEITVIAKKGSKNPYKIGTEVDKSLAEDGHLVAPIKKDAKVGSITLESTDKYGFLDGSNSMKVTAKTTEEVEKANWFVLTMRSIGDFFSNLWSKVF”: the “soluble on expression in E. coli” value is on record as “not soluble”.

“GKDWMISAKGTFTFARNILDEVFETEATFNNPNRRRTGRPDGTMFGYNALGYFTYDDFNPDGSLKAGIATQPWGQVYPGDLRYEDLSGPNGVPDGKIDEHDQTVIGFSNWAPEIIFGLAPTVQWKNFDLNALIQGATRTSISLGETLVMPFFDSGSATKLQFSDHWTPDNTNAPYPRLTSEVTVNNHRQPSSWWVRDATYIRLKSIEIGYTLPRSALNFIGISSARVYASGQNLWTWTPFMKELIDPEAKSANGKYYMQQAVYAFGLNITF”: the “soluble on expression in E. coli” value was “not soluble”.

“MNSNANNTPIAIGISQVFPCSYLDGQQEQLLVIQEETLDPILFERLLAIGFRRSGSAIYKPRCPRCSACQPIRVPIQEFVPSKRQKRTLAHNRDLTWRITTEHTETQYALYEKYIRERHFDGPMYPPSKAQYEQFLFCHWLPPTFIEVYDDNRLVAVAVTDTLPNSFSAIYSYFDPDEERRSLGVLLILLQCRLAKLQGKAFLYLGYQIDANRKMSYKRLYRPYQILTHQGWEYSQVCLEHHHHHH”: the “soluble on expression in E. coli” value was “not soluble”.

As for “MGSDKIHHHHHHMVDLDLTQIQKDILYALITLYKKKSGGSVKGEEIAELINRNPGTVRNQMQALRALGLVEGVPGPKGGYRPTSKAYELLSVTRPEESVVVPVVVNGNVMEELSAEEIVLPSISNPNICQARIRIIGDIKKINPGDSVIVGPTPVNEMMVYGKVVGRDDTENTIVLDIEKIVALPKDTVGEHMSSPIISVDAEESVVNAAKVLAENGIYCTPVQKNGKFVGIFTLDHVAKAVAEGKLNAKVEEVMRPKLVMVEKDTKIGEALRLMRDEKVRILLVTDKGEPVGVITDQKILTRLAPEQVET”, the “soluble on expression in E. coli” value was “not soluble”.

In the case of “GYCGPCPNNWICHRNNCYQFFNEEKTWNQSQASCLSQNSSLLKIYSKEEQDFLKLVKSYHWMGLVQIPANGSWQWEDGSSLSYNQLTLVEIPKGSCAVYGSSFKAYTEDCANLNTYICMKRAV”, the “soluble on expression in E. coli” value is on record as “soluble”.

Turning to “MGSDKIHHHHHHMMFKWPWKADDESGNAEMPWEQALAIPVLAHLSSTEQHKLTQMAARFLQQKRLVALQGLELTPLHQARIAMLFCLPVLELGIEWLDGFHEVLIYPAPFIVDDEWEDDIGLVHNQRVVQSGQSWQQGPVVLNWLDIQDSFDASGFNLVVHEVAHKLDTRNGDRASGVPLIPLREVAGWEHDLHAAMNNIQDEIDLVGESAASIDAYAATDPAECFAVLSEYFFSAPELFAPRFPALWQRFCHFYRQDPLARRRENGLQDEGDRRIVH”, the “soluble on expression in E. coli” value was “not soluble”.

On to “MSLSKKIVIVGGVAGGASTAARLRRLDENNQIIMFERGPHVSFSNCCLPYYLSGKVENHEDLVLMTPEKFYSQYRIDARVYTEVVSINRKAKEVTVRNVVSGQEYTESYDKLVLSPGAKAIVPPIKGIEDVNVFTVRNVVDIAKLDSFIKDNNSKNISVIGGGFIGVEVAENLHEAGYNVTLIEAMDQIMKPFDYDMVQVLHKEMYDKGVNLIVGDKVSSFESGKVVLESGKKINSDAVVMAIGVAPETDLAREAGLEIGQTGAIKVNQNYLTNDKDIYAVGDAVEVYNSLTNSISRLPLAGPAQKQARAVADHIHGRPSRNSGYIGSSCVQIFDYNGASTGLTEGQIKAMNLSLNYDVVRVIPQDKVGLMPGSEPLHFKLIFEVPTGRILGAQAIGKGNADKRVDIIATLIKMGGTVEDLKDLELCYAPPFGTAKDVVNHAALVASNLLEGTFKQVYVHEVRDLVESGACIIDVREVSEYEAGHIKGAKNLPLSEIRDRLDEIPTDRPVYLHCRSAQRSYNACLALQHLGFDNIYNVSGGFMGISFYEYYNDKVQDREPIVTEYNFNEGHHHHHH”, for which the “soluble on expression in E. coli” value is “soluble”.

For the sequence “MGSDKIHHHHHHMSEAKMAESDGLRVLIDEPFYQPVANEVRVFLAAWDRRLPVMLKGPTGCGKTRFLEHMAWRLKRPLVTVACHEDLTSSDLIGRFLIEGNETVWQDGPLTRAVREGAICYLDEIVEARTDTTVVIHPLTDHRRHLPIEKLGIEITAHRDFMLVISYNPGYQTVLKDLKPSTKQRFVGMNFNYPPADVETCIVMKEAGVDEGRAKALVAAAGKARNLKEQGLQEVTSTRALIYAGALMVAGLDALEACVVAIIHPQTDDPELAEALLEIFRTFFPEQG”, the “soluble on expression in E. coli” value is given as “not soluble”.

Consider “MAHHHHHHMQKHNIKLNQNQDISQLFHDEVPLFDNSITSKDKEVIETLSEIYSIVITLDHVEKAYLKDSIDDTQYTNTVDKLLKQFKVYLNSQNKEEINKHFQSIEAFCDTYNITASNAITRLERGIPITAEHAISTTTSAPSGDNKQSSSSDKK”, for which the “soluble on expression in E. coli” value is “soluble”.

Regarding “MILKPENEKKLIIDVLKKFGVPEEDAKITADVFVDADLKGFTSHGIGRFPQYITALKLGNINPKPDIKIVKESPATAVIDGDLGLGQVVGKKAMELAIKKAKNVGVGVVATRNANHFGIAGYYSELAMNQDMIGITITNTEPAMAPFGGKEKILGTNPIAIAFKGNKYKFSLDMATASIARGKILEALRKKIKIPEGCAVDKDGKPTTDPAKALEGCILPFGGPKGYGLALAIEMLSAIGGAEVGTKVKGTANPEERCTKGDLFIAINPEFFMGKEEFKRKVDELLDEIKNSEPAEGFEILIPGEIEERNKMKRKDGFEIDKNLYNQLKEICNELGLNIEDYIE”, the “soluble on expression in E. coli” value is listed as “soluble”.

For the sequence “MPSASASRKSQEKPREIMDAAEDYAKERYGISSMIQSHEKPDRVLVRVRDLTIQKADEVVWVRARVHTSRAKGKQCFLVLRQQQFNVQALVAVGDHASKQMVKFAANINKESIVDVEGVVRKVNQKIGSCTQQDVELHVQKIYVISLAEPRLPLQLDDAVRPEAEGEEEGRATVNQDTRLDNRVIDLRTSTSQAVFRLQSGICHLFRETLINKGFVEIQTPKIISAASEGGANVFTVSYFKNNAYLAQSPQLYKQMCICADFEKVFSIGPVFRAEDSNTHRHLTEFVGLDIEMAFNYHYHEVMEEIADTMVQIFKGLQERFQTEIQTVNKQFPCEPFKFLEPTLRLEYCEALAMLREAGVEMGDEDDLSTPNEKLLGHLVKEKYDTDFYILDKYPLAVRPFYTMPDPRNPKQSNSYDMFMRGEEILSGAQRIHDPQLLTERALHHGIDLEKIKAYIDSFRFGAPPHAGGGIGLERVTMLFLGLHNVRQTSMFPRDPKRLTP”, the “soluble on expression in E. coli” value is listed as “soluble”.

For “MSTIIDVYAREVLDSRGNPTVEVEVYTESGAFGRAIVPSGASTGEHEAVELRDGDKSRYLGKGVMNAVNNVNEAIAPEIVGFDVTDQAGIDRAMIELDGTPNKGKLGANAILGVSMAVAHAAADFVGLPLYRYLGGFNAKQLPTPMMNIINGGSHADNNVDFQEFMILPVGAPTFKESIRMGAEVFHALKAVLHDKGLNTAVGDEGGFAPNLGSNREALEVIIEAIEKAGYKAGENVFLGMDVASSEFYNKETGKYDLAGEGRTGLTSAEMVDFYEELCKDFPIISIEDGLDENDWDGHKLLTERIGDKVQLVGDDLFVTNTQKLAEGIEKGISNSILIKVNQIGTLTETFEAIEMAKRAGYTAVVSHRSGETEDATIADIAVATNAGQIKTGSMSRTDRIAKYNQLLRIEDELGEIAVYDGIKSFYNIKR”, the “soluble on expression in E. coli” value was “soluble”.

As for “MGSSHHHHHHSSGLVPRGSHMEELQKSIGHKPEPTDEEWELIKTVTEAHVATNAQGSHWKQKRKFLPEDIGQAPIVNAPEGGKVDLEAFSHFTKIITPAITRVVDFAKKLPMFCELPCEDQIILLKGCCMEIMSLRAAVRYDPESETLTLNGEMAVTRGQLKNGGLGVVSDAIFDLGMSLSSFNLDDTEVALLQAVLLMSSDRPGLACVERIEKYQDSFLLAFEHYINYRKHHVTHFWPKLLMKVTDLRMIGACHASRFLHMKVECPTELFPPLFLEVFED”, the “soluble on expression in E. coli” value is “soluble”.

For “MKIYVSCDIEGLAGIATFDMEKEDTVLFRELYHQHVAWLIEGIQKSAKNEQITEITIADSHSRGLNLAYARLAEMDERISLVSGFPRMDYMMSGLDSSYDVVFFLGYHAGIGKQKGNMDHGYSASVAYDLKINDLAMNETTINAAYASELGVPVGLIIGESGLEEQLFQEKMMPEVPFVSTKESLGRYAIKNRPMQQVREAIVATTSQVLTSFALSELPRYALQTPATVKLQCVTTAQADRIEMLPMIKRIDGRTVSFVGETMKDVMNGIVAVVGLGGTSY”, the “soluble on expression in E. coli” value was “not soluble”.
